The chains are these.
B1: Hu1217-2-2 (anti-TIGIT positive control antibody) (antibody, V domains shown)
VH: EVQLVESGGGLVQPGGSLRLSCAASGFTFSDYYMYWVRQAPGKGLEWVAYITKGGGSTYYPDSVKGRFTISRDNAKNTLYLQMNSLRAEDTAVYYCARQTNYDFTMDYWGQGTLVTVSS
VL: EIVMTQSPATLSVSPGERATLSCKASQDVGTSVAWYQQKPGQAPRLLIYWASARHTGIPARFSGSGSGTEFTLTISSLQSEDFAVYYCQQYSSYPLTFGGGTKVEIK
B2: reshaped TIGIT-3 antibody 3VH3 + 3VL1.M3 (antibody, V domains shown)
VH: EVQLVESGGGLVQPGGSLRLSCAASGFTFSSYGMSWVRQAPGKGLELVATIKSDGGSTNLPDSVKGRFTISRDNSKNTLYLQMNSLRAEDTAVYYCVRGYFDYWGQGTTVTVSS
VL: DIQMTQSPSSLSASVGDRVTITCKASQDVKTAVAWYQQKPGKVPKLLIYWASTRHSGVPSRFSGSGSGTDFTLTISSLQPEDVATYYCQQYYSTPYTFGGGTKVEIK
notes: Full-length IgG, tested as HEK293 supernatant
B3: reshaped TIGIT-3 antibody 3VH3 + 3VL1.M4 (antibody, V domains shown)
VH: B2 VH
VL: B2 VL with H55Q
notes: as for B2
B4: reshaped TIGIT-3 antibody 3VH3 + 3VL1.M1 (antibody, V domains shown)
VH: B2 VH
VL: B2 VL with K24R, V29I, V33L, A51S, S56T
notes: as for B2
B5: TIGIT-18 chimeric antibody (antibody, human IgG1, kappa, V domains shown)
VH: QVQLQQPGAELVRPGASVKLSCKASGYSFTSYWMNWVKQRPGQGHEWIGMIHLSNSETRLNQNFLDKATLTVDKSSSTVYLQLSSPTSEDSAVYYCARERDYYGSSYFDYWGQGTTLTVSS
VL: DIVMTQSPASLVVSLGQRATISCRTSQSVSTSSYSYMHWYQQKPGQPPKLLIKNASNLESGVPARFSASGSGTDFTLNIHPVEEEDAATYYCQHSWEIPRTFGGGTKLEIKR
notes: Full-length chimeric IgG1 kappa
B6: TIGIT-63 chimeric antibody (antibody, human IgG1, kappa, V domains shown)
VH: DVQLVESGGGLVQPGGSLSLSCAASGFTFTDYYMNWVRQPPGKALEWLGFIRNKANGYTTEYSASVKGRFTISRDNSQSILYLQMNALRAEDSATYYCARSTAWYFDVWGTGTTLTVSS
VL: DIQMTQSPASLSASVGGTVTITCRASEHIYSYLAWYQQKQGKSPQLLVYNAKTLAEGVPSRFSGSGSGTQFSLKINSLQPKDFGSYYCQHHYGNPLTFGAGTKLELKR
notes: as for B5
B7: TIGIT-87 chimeric antibody (antibody, human IgG1, kappa, V domains shown)
VH: EVKLVESGPELVKPGASMKISCKASGYSFTGYTMNWVKQSHGKNLEWIGLINPYNGGTSYNQKFKGKATLTVDKSSSTAYMELLSLTSEDSAVYYCARYANRFENWFAYWGQGTLVTVSS
VL: B6 VL with G17E, H28N, K81E, N94T, L96W, A100G, L106I
notes: as for B5
B8: TIGIT-52 chimeric antibody (antibody, human IgG1, kappa, V domains shown)
VH: EVQLVESGGGLVEPGGSLTLSCVASGFTFSSFAMSWVRQTPEKRLEWVATISNGGSYTYYPDTVKGRFTISRDNAKNTLFLQMSSLRSEDTAMYYCARPYYGTTYGYYFDFWGQGTTLTVSS
VL: QIVLTQSPASLAVSLGQRATISCRASESVDRNGNSFMHWYQQKPGQPPKLLIYLASNLESGVPARFSGSGSRTDFTLTIDPVEADDAATYYCQQNNEDPLTFGAGTKLELKR
notes: as for B5
B9: TIGIT-100 chimeric antibody (antibody, human IgG1, kappa, V domains shown)
VH: QVQLQQPGPELVKPGASVKISCKASGYSFTDYNMNWVKQSNGKSLEWIGVINPNSGTDNYNQKFKGKATLTVDQSSSTAYMQLNSLTSEDSAVYFCARGVYFGNYFDSWGQGTTLTVSS
VL: DIVMTQSPASLSASVGETVTITCRASENIYSSLAWYQQKQGKSPQLLVFNAKTLTEGVPSRFSGSGSGTQFSLKINSLQPEDFGSYYCQHHYGAPWTFGGGTKLEIKR
notes: as for B5

Changes are numbered by the printed parent chain. Bounds are passed on as bounds.

T4 sequence (A0A7N9I9V4 entry or part of it): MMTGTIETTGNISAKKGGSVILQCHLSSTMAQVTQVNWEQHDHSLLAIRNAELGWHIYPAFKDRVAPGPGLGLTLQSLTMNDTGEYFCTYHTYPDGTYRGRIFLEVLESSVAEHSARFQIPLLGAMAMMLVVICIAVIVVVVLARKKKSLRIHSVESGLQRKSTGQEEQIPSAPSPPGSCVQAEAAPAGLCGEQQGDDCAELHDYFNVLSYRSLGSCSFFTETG

One assay addresses T1, TIGIT on TIGIT-over expressing NFAT-Luc/Jurkat effector cells (GenScript reporter cell line) (UniProt Q495A1 22-244, limits assumed).
T1 sequence (looked up): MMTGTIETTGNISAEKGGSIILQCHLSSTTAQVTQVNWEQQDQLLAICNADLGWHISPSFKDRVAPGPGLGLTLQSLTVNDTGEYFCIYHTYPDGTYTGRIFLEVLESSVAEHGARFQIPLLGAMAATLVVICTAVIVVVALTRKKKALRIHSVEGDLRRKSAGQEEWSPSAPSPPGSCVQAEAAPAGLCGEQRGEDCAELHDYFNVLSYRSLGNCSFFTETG
The assay is described as follows: cell-based or functional assay.
Consider B1, for which the “Bottom (RLU)” value was 52900 RLU; the EC50 – broadly, the concentration at which the effect is half-maximal – amounted to 11.1 nM; the “Top (RLU)” value amounted to 163000 RLU.

The target in another assay is T2, His-tagged human TIGIT (human, UniProt Q495A1 22-141).
T2 construct: SPR analyte; also called human TIGIT protein; not shown: His tag
T2 sequence: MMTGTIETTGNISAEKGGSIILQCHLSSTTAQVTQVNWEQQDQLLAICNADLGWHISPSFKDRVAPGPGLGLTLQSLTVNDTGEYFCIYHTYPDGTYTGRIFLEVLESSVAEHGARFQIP
The assay is described as follows: SPR experiment 3, IgG from HEK293 supernatant captured. Background: SPR reads the build-up and loss of mass on a sensor chip optically.
With B2, the dissociation constant Kd (usually the concentration at which binding is half-saturated) came to 46 nM; the koff – broadly, the rate constant with which the complex falls apart – was determined as 0.0089 s⁻¹; the kon – broadly, the rate constant with which the complex forms – is 190000 M⁻¹ s⁻¹.
The corresponding values for B3 are 55 nM, 0.012 s⁻¹ and 230000 M⁻¹ s⁻¹.
The corresponding values for B4 are 17 nM, 0.0038 s⁻¹ and 230000 M⁻¹ s⁻¹.

In the next assay the target is T2, His-tagged human TIGIT. In words: SPR (Biacore T200), antibody captured, His-tagged TIGIT analyte.
Take B5: the Kd stood at 0.22 nM, the off-rate constant (koff) is 9.5e-05 s⁻¹ and the kon was 430000 M⁻¹ s⁻¹.
In turn, B1 displayed a dissociation constant Kd of 0.11 nM, an off-rate (koff) of 0.00013 s⁻¹ and an on-rate (kon) of 1.2e+06 M⁻¹ s⁻¹.
In turn, B6 gave a dissociation constant (Kd) of 2.5 nM, an off-rate constant (koff) of 0.00062 s⁻¹ and a kon of 250000 M⁻¹ s⁻¹.
The corresponding values for B7 are 0.63 nM, 0.0012 s⁻¹ and 2e+06 M⁻¹ s⁻¹.
The corresponding values for B8 are 0.17 nM, 7.4e-05 s⁻¹ and 440000 M⁻¹ s⁻¹.
Molecule B9 gave a dissociation constant Kd of 6.6 nM, a koff of 0.014 s⁻¹ and a kon of 2.2e+06 M⁻¹ s⁻¹.

For the next assay, the target named is T3, His-tagged cynomolgus TIGIT (cynomolgus, UniProt A0A7N9I9V4 89-209).
T3 construct: SPR analyte; also called cynomolgus TIGIT protein; not shown: His tag
T3 sequence (A0A7N9I9V4 entry or part of it): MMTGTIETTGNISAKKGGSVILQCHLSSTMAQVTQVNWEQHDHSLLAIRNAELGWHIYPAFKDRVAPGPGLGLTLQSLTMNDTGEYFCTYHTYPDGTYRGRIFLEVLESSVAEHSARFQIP
Described as above.
B5 came in with a Kd of 4.4 nM, an off-rate constant (koff) of 0.0011 s⁻¹ and a kon of 260000 M⁻¹ s⁻¹.
Molecule B1 yielded a dissociation constant (Kd) of 280 nM, a koff of 0.044 s⁻¹ and a kon of 160000 M⁻¹ s⁻¹.
The matching figures for B6: 3.4 nM, 0.00049 s⁻¹ and 140000 M⁻¹ s⁻¹.
The corresponding values for B7 are 47 nM, 0.063 s⁻¹ and 1.3e+06 M⁻¹ s⁻¹.
For B8, the equilibrium dissociation constant (Kd) was 0.28 nM, the koff was found to be 6.1e-05 s⁻¹ and the association rate constant (kon) worked out at 220000 M⁻¹ s⁻¹.
The corresponding values for B9 are 29 nM, 0.012 s⁻¹ and 420000 M⁻¹ s⁻¹.

The next assay concerns the target T4, cynomolgus TIGIT expressed on CHO-K1 cells (cynomolgus, UniProt A0A7N9I9V4 89-312).
T4 construct: whole, on cells; also called cynomolgus TIGIT over-expressing cell line
In words: flow cytometry on CHO-K1 cells expressing cynomolgus TIGIT. (In flow cytometry, cells or beads pass a laser one at a time.)
The molecule B5 returned an EC50 of 1.45 nM.
Same read-out and setting: in the case of B6 it was 1.92 nM.
On the same count and under the same terms, in the case of B7 it was 0.81 nM.
On the same count and under the same terms, in the case of B8 it was 7.68 nM.

Another assay has as its target T5, human TIGIT expressed on CHO-K1 cells (human, UniProt Q495A1 22-244).
T5 construct: whole, on cells; also called human TIGIT-CHO-K1 cells; human TIGIT over-expressing cell line
T5 sequence (looked up): T1 sequence (looked up)
In words: flow cytometry competition: biotinylated CD155-Fc on human TIGIT-CHO-K1 cells.
As to B5, the half-inhibitory concentration (IC50) (commonly the midpoint of a concentration-inhibition curve) came out at 1.23 nM.
The same measure, in the same setting: in the case of B1 it was 0.81 nM; in that of B6, 2.32 nM; in that of B7, 0.53 nM.
The same measure, in the same setting: in the case of B8 it was 13.9 nM; in that of B9, 0.82 nM.

The target in the next assay is T5, human TIGIT expressed on CHO-K1 cells. In words: flow cytometry on CHO-K1 cells expressing human TIGIT.
Molecule B1 yielded a concentration giving a half-maximal response (EC50) of 0.65 nM.

For the next assay the target is unchanged. In words: flow cytometry competition: biotinylated CD155-Fc on human TIGIT-CHO-K1 cells. This is another data set of the same source.
The molecule B1 displayed a half-maximal inhibitory concentration (IC50) of 0.62 nM.

For the next assay the target is unchanged. The assay is described as follows: flow cytometry on CHO-K1 cells expressing human TIGIT. This is another data set of the same source.
Regarding B5, the EC50 stood at 0.76 nM. In other words, the sub-nanomolar range.
Still for that read-out and setting: in the case of B1 it was 0.46 nM; in that of B6, 1.12 nM.
Same read-out and setting: in the case of B7 it was 0.4 nM.
The same measure, in the same setting: in the case of B8 it was 8.43 nM.
In the case of B9, the concentration giving a half-maximal response (EC50) came to 0.55 nM.

The target in another assay is T1, TIGIT on TIGIT-over expressing …. The assay is described as follows: cell-based or functional assay. This is another data set of the same source.
B5: the “Bottom (RLU)” value turned out to be 10400 RLU, the half-maximal effective concentration (EC50) was determined as 31.3 nM and the “Top (RLU)” value was determined as 50600 RLU.
As for B1, the “Bottom (RLU)” value was found to be 10500 RLU, it took 15.6 nM to reach a half-maximal effect (EC50) and the “Top (RLU)” value came to 51700 RLU.
The corresponding values for B6 are 11200 RLU, 46.8 nM and 28700 RLU.
With B7, the “Bottom (RLU)” value stood at 9300 RLU, the concentration giving a half-maximal response (EC50) was greater than 100 nM and the “Top (RLU)” value was found to be 17000 RLU.
With B8, the “Bottom (RLU)” value is 11800 RLU, the 50% effective concentration (EC50) is greater than 100 nM and the “Top (RLU)” value came out at 14200 RLU.
The matching figures for B9: 4520 RLU, greater than 100 nM and 11700 RLU.

A further assay deals with T2, His-tagged human TIGIT. In words: SPR (Biacore T200), antibody captured, His-tagged TIGIT analyte. This is another data set of the same source.
For B1, the Kd is 0.051 nM, the koff is 5.1e-05 s⁻¹ and the kon was found to be 1e+06 M⁻¹ s⁻¹.

In another assay the target is T3, His-tagged cynomolgus TIGIT. The description is as above. This is another data set of the same source.
B1 had a Kd of 470 nM, a koff of 0.063 s⁻¹ and a kon of 130000 M⁻¹ s⁻¹.

Another assay has as its target T4, cynomolgus TIGIT expressed on CHO-K1 …. In words: flow cytometry on CHO-K1 cells expressing cynomolgus TIGIT. The source holds these as a separate data set.
In turn, B1 registered a half-maximal effective concentration (EC50) of 43 nM. That is a double-digit nanomolar value.

(Values after patent US20260139048A1 (NANJING LEGEND BIOTECH, published 2026).)
